Measured values reported in paper PMC7614769.
Where “and” joins values, the source holds several entries; their conditions need not be identical. Equal values may be shown once.

Molecular target: human FcμR ectodomain (human) (UniProt O60667)
Assay: BLI; FcμR (20 μg/ml) captured on AMC (anti-mouse IgG-Fc capture) biosensors by the anti-FcμR antibody RR-16; full-length or proteolysed IgM 0.08-10 nM in solution; PBS, 0.005% Tween 20, 25 °C; apparent Kd from response against IgM concentration, 1:1 binding model

Sequence of Full-length IgM (myeloma), pentamer with J chain (P01591 whole entry, looked up): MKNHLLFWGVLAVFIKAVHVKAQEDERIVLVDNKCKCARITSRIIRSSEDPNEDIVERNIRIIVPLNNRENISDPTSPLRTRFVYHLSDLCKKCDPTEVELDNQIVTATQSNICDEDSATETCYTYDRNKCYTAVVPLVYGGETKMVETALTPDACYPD
Sequence of human FcμR ectodomain (human) (O60667 17-251): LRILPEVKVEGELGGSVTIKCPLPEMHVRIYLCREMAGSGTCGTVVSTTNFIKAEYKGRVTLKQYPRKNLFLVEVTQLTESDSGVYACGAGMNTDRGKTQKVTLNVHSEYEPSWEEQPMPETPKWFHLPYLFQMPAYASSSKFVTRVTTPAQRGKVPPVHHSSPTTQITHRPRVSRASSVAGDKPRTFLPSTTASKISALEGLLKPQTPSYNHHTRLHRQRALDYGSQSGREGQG

For “Full-length IgM (myeloma), pentamer with J chain (from UniProt P01591 23-159) (antibody)”, the Kd was 0.3 nM and 0.4 nM.
